Test results published in patent US9969998B2, “Compositions of adenosine deaminase-2 (ADA2), variants thereof and methods of using same” (Halozyme, Inc., priority 2014, dated 2018).

How the values were obtained:
[1] = Adenosine deaminase (ADA) activity assay; format: biochemical
Description: The adenosine deaminase (ADA; EC 3.5.4.4) activity of any of the ADA2 described herein, including a wildtype, variant or conjugate, can be assessed using methods well known in the art. ADA activity assays commonly measure, directly or indirectly, the rate of production a product of the enzymatic reaction. For example, the production of inosine or ammonia can be directly or indirectly measured. In other examples, the decrease of the substrate of the enzyme, e.g., adenosine or 2-deoxyadenosine, is measured. The decrease of the substrate, or the increase of the product, can be measured directly by spectrophotometry, or indirectly, by subsequent enzymatic or oxidation-reduction reactions that use chromogenic substrates or change the absorbance spectra of the reaction.
For example, some commercially available adenosine deaminase (ADA) assays, such as ADA assay kits available from BQ Kits (San Diego, Calif.; Cat. No. BQ014EALD) and Diazyme (Poway, C A; Cat. No. DZ117A-K), utilize colorimetric substrate and spectrophotometric reading to determine the conversion of adenosine to inosine by ADA enzymes. In these assays, the production of inosine is detected by multi-step enzymatic reactions that produce a chromogenic dye. […] The change in absorbance at 556 nm (ΔA556) over time, at 37° C., is measured. […]

[2] = Stability of ADA activity in plasma; format: in vitro ADME, mouse; details: long incubation (e.g., 24 hours) in plasma
Protocol: For therapeutic uses, such as for treatment of tumors or cancers, it is desirable to administer to the subject a dosage of ADA2 that will maintain plasma adenosine deaminase (ADA) activity for a sufficient time for therapeutic effect. […] The plasma stability of any ADA2 described herein, such as a wildtype, variant or conjugate, can be determined by measuring the changes in enzymatic activity and/or other physical properties, before and after incubation in plasma, e.g., ex vivo mammalian plasma.
Stability can be assessed in vitro or in vivo. For example, stability can be tested after exposure to plasma for a desired length of time, which can be empirically determined or selected by a skilled artisan depending on the desired length of time. For example, the incubation time can be at least 1 hour, such as at least 2, 3, 4, 5, 10, 15, 20, 24, 30, 36, 48, 60, 72 hours or more. The protein can be directly administered systemically, such as intravenously, and activity can be assessed. In other examples, the protein can be subject to appropriate incubation conditions in vitro. In one example, the stability of ADA activity of any ADA2 provided herein can be measured after incubation at 37° C., in 25% ex vivo plasma or serum, such as human or non-human plasma or serum, for example, mouse plasma. […]

B1: ADA2: wild-type human adenosine deaminase 2, mature form SEQ ID NO:5, homodimer (protein, listed as Homo sapiens)
chain: IDETRAHLLLKEKMMRLGGRLVLNTKEELANERLMTLKIAEMKEAMRTLIFPPSMHFFQAKHLIERSQVFNILRMMPKGAALHLHDIGIVTMDWLVRNVTYRPHCHICFTPRGIMQFRFAHPTPRPSEKCSKWILLEDYRKRVQNVTEFDDSLLRNFTLVTQHPEVIYTNQNVVWSKFETIFFTISGLIHYAPVFRDYVFRSMQEFYEDNVLYMEIRARLLPVYELSGEHHDEEWSVKTYQEVAQKFVETHPEFIGIKIIYSDHRSKDVAVIAESIRMAMGLRIKFPTVVAGFDLVGHEDTGHSLHDYKEALMIPAKDGVKLPYFFHAGETDWQGTSIDRNILDALMLNTTRIGHGFALSKHPAVRTYSWKKDIPIEVCPISNQVLKLVSDLRNHPVATLMATGHPMVISSDDPAMFGAKGLSYDFYEVFMGIGGMKADLRTLKQLAMNSIKYSTLLESEKNTFMEIWKKRWDKFIADVATK
modifications: ADA2 mature protein
For B1, which “Km of ADA2 for adenosine relative to that of ADA1” value [1] is on record?
Its value is “approximately 100 times”.

What about the stability in plasma [2] of the same molecule?
Its stability in plasma is “more stable than ADA1”.
